Data reported in the supplement of paper PMC9112550, “Optimization of the antimicrobial peptide Bac7 by deep mutational scanning” (BMC Biology, 2022).

These sequences were tested on Escherichia coli TOP10 (assay: shrunken log2 fold change of peptide-encoding DNA abundance (4.5 h post-induction vs induction); higher = less antimicrobial activity (less host growth inhibition)). Settings: time post-induction: 4.5 h; library: site-saturation at positions 5, 18, 19, 20.
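Also: peptides expressed intracellularly from a pBAD plasmid library in pooled LB shake-flask culture, induced with 0.3% L-arabinose, DNA abundance read by NGS, three biological replicates, DESeq2 with apeglm shrinkage.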

Sequence	shrunken log2 fold change
RRIRWRPPRLPRPRPRPMIEPRP	0.0215
RRIRWRPPRLPRPRPRPMIKPRP	-0.353
RRIRWRPPRLPRPRPRPMIQPRP	-0.000914
RRIRWRPPRLPRPRPRPMLFPRP	-0.00681
RRIRWRPPRLPRPRPRPMLMPRP	-0.0339
RRIRWRPPRLPRPRPRPMLYPRP	0.0136
RRIRWRPPRLPRPRPRPMNSPRP	-0.0812
RRIRWRPPRLPRPRPRPMPCPRP	0.113
RRIRWRPPRLPRPRPRPMQPPRP	0.185
RRIRWRPPRLPRPRPRPMSIPRP	-0.191
RRIRWRPPRLPRPRPRPMSYPRP	-0.206
RRIRWRPPRLPRPRPRPMTCPRP	-0.34
RRIRWRPPRLPRPRPRPMWDPRP	0.157
RRIRWRPPRLPRPRPRPMWMPRP	-0.195
RRIRWRPPRLPRPRPRPMWVPRP	-0.0542
RRIRWRPPRLPRPRPRPNCPPRP	-0.125
RRIRWRPPRLPRPRPRPNDNPRP	-0.425
RRIRWRPPRLPRPRPRPNEHPRP	-0.113
RRIRWRPPRLPRPRPRPNEKPRP	0.0011
RRIRWRPPRLPRPRPRPNERPRP	0.119
RRIRWRPPRLPRPRPRPNFCPRP	0.0758
RRIRWRPPRLPRPRPRPNGFPRP	0.128
RRIRWRPPRLPRPRPRPNKCPRP	-0.109
RRIRWRPPRLPRPRPRPNMCPRP	-0.0387
RRIRWRPPRLPRPRPRPNMTPRP	0.0683

Sequence	shrunken log2 fold change
RRIRWRPPRLPRPRPRPNNFPRP	-0.0323
RRIRWRPPRLPRPRPRPNQCPRP	-0.384
RRIRWRPPRLPRPRPRPNSHPRP	-0.16
RRIRWRPPRLPRPRPRPNSPPRP	-0.255
RRIRWRPPRLPRPRPRPNTFPRP	2.19
RRIRWRPPRLPRPRPRPNVEPRP	-0.319
RRIRWRPPRLPRPRPRPNYGPRP	-0.281
RRIRWRPPRLPRPRPRPPAAPRP	0.913
RRIRWRPPRLPRPRPRPPAYPRP	-0.0328
RRIRWRPPRLPRPRPRPPDPPRP	0.296
RRIRWRPPRLPRPRPRPPEAPRP	0.428
RRIRWRPPRLPRPRPRPPEPPRP	-0.011
RRIRWRPPRLPRPRPRPPEYPRP	0.539
RRIRWRPPRLPRPRPRPPGIPRP	0.41
RRIRWRPPRLPRPRPRPPGRPRP	0.877
RRIRWRPPRLPRPRPRPPKVPRP	0.136
RRIRWRPPRLPRPRPRPPMFPRP	-0.00833
RRIRWRPPRLPRPRPRPPMVPRP	0.104
RRIRWRPPRLPRPRPRPPNNPRP	-0.0673
RRIRWRPPRLPRPRPRPPPAPRP	1.2
RRIRWRPPRLPRPRPRPPPIPRP	0.574
RRIRWRPPRLPRPRPRPPQYPRP	0.0672
RRIRWRPPRLPRPRPRPPSHPRP	0.163
RRIRWRPPRLPRPRPRPPSVPRP	0.171
RRIRWRPPRLPRPRPRPPTPPRP	1.4

Sequence	shrunken log2 fold change
RRIRWRPPRLPRPRPRPPTTPRP	0.277
RRIRWRPPRLPRPRPRPPVQPRP	0.952
RRIRWRPPRLPRPRPRPPYFPRP	-0.0123
RRIRWRPPRLPRPRPRPQAAPRP	0.702
RRIRWRPPRLPRPRPRPQADPRP	-0.104
RRIRWRPPRLPRPRPRPQANPRP	0.395
RRIRWRPPRLPRPRPRPQAYPRP	0.0869
RRIRWRPPRLPRPRPRPQENPRP	-0.0785
RRIRWRPPRLPRPRPRPQERPRP	-0.0207
RRIRWRPPRLPRPRPRPQFQPRP	-0.523
RRIRWRPPRLPRPRPRPQHEPRP	-0.0328
RRIRWRPPRLPRPRPRPQHFPRP	0.418
RRIRWRPPRLPRPRPRPQHPPRP	0.0134
RRIRWRPPRLPRPRPRPQHRPRP	0.25
RRIRWRPPRLPRPRPRPQILPRP	-0.164
RRIRWRPPRLPRPRPRPQLEPRP	0.0296
RRIRWRPPRLPRPRPRPQLGPRP	0.276
RRIRWRPPRLPRPRPRPQLYPRP	0.185
RRIRWRPPRLPRPRPRPQMLPRP	0.313
RRIRWRPPRLPRPRPRPQMNPRP	-0.243
RRIRWRPPRLPRPRPRPQPMPRP	0.145
RRIRWRPPRLPRPRPRPQQDPRP	0.0825
RRIRWRPPRLPRPRPRPQRPPRP	-0.00892
RRIRWRPPRLPRPRPRPQSNPRP	-0.124
RRIRWRPPRLPRPRPRPQTTPRP	0.206

Sequence	shrunken log2 fold change
RRIRWRPPRLPRPRPRPQVVPRP	-0.00458
RRIRWRPPRLPRPRPRPQYWPRP	-0.184
RRIRWRPPRLPRPRPRPREIPRP	0.426
RRIRWRPPRLPRPRPRPRERPRP	0.859
RRIRWRPPRLPRPRPRPREVPRP	0.477
RRIRWRPPRLPRPRPRPRFRPRP	0.314
RRIRWRPPRLPRPRPRPRGPPRP	0.931
RRIRWRPPRLPRPRPRPRKRPRP	0.726
RRIRWRPPRLPRPRPRPRNGPRP	0.401
RRIRWRPPRLPRPRPRPRPCPRP	0.514
RRIRWRPPRLPRPRPRPRPMPRP	0.427
RRIRWRPPRLPRPRPRPRQLPRP	-0.0051
RRIRWRPPRLPRPRPRPRSYPRP	-0.0435
RRIRWRPPRLPRPRPRPRTAPRP	0.564
RRIRWRPPRLPRPRPRPRTMPRP	0.205
RRIRWRPPRLPRPRPRPRVAPRP	0.699
RRIRWRPPRLPRPRPRPRVDPRP	0.39
RRIRWRPPRLPRPRPRPRVLPRP	0.381
RRIRWRPPRLPRPRPRPRWCPRP	-0.00787
RRIRWRPPRLPRPRPRPRWEPRP	0.238
RRIRWRPPRLPRPRPRPSAEPRP	1.14
RRIRWRPPRLPRPRPRPSAQPRP	0.422
RRIRWRPPRLPRPRPRPSCQPRP	0.232
RRIRWRPPRLPRPRPRPSDPPRP	0.00652
RRIRWRPPRLPRPRPRPSEAPRP	0.0701

Sequence	shrunken log2 fold change
RRIRWRPPRLPRPRPRPSERPRP	0.415
RRIRWRPPRLPRPRPRPSFMPRP	-0.304
RRIRWRPPRLPRPRPRPSFQPRP	-0.284
RRIRWRPPRLPRPRPRPSFWPRP	0.372
RRIRWRPPRLPRPRPRPSGGPRP	2.77
RRIRWRPPRLPRPRPRPSKTPRP	0.0507
RRIRWRPPRLPRPRPRPSLYPRP	-0.402
RRIRWRPPRLPRPRPRPSNPPRP	-0.218
RRIRWRPPRLPRPRPRPSPDPRP	0.236
RRIRWRPPRLPRPRPRPSPIPRP	-0.0871
RRIRWRPPRLPRPRPRPSPKPRP	0.403
RRIRWRPPRLPRPRPRPSPRPRP	0.299
RRIRWRPPRLPRPRPRPSPVPRP	-0.0363
RRIRWRPPRLPRPRPRPSRHPRP	0.0203
RRIRWRPPRLPRPRPRPSRLPRP	0.00373
RRIRWRPPRLPRPRPRPSRNPRP	-0.0585
RRIRWRPPRLPRPRPRPSSLPRP	0.449
RRIRWRPPRLPRPRPRPSTCPRP	-0.457
RRIRWRPPRLPRPRPRPSTDPRP	0.0398
RRIRWRPPRLPRPRPRPSTEPRP	0.0764
RRIRWRPPRLPRPRPRPSTIPRP	-0.374
RRIRWRPPRLPRPRPRPSVGPRP	0.149
RRIRWRPPRLPRPRPRPSWWPRP	0.2
RRIRWRPPRLPRPRPRPSYLPRP	-0.417
RRIRWRPPRLPRPRPRPSYSPRP	-0.705

Sequence	shrunken log2 fold change
RRIRWRPPRLPRPRPRPTAEPRP	1.76
RRIRWRPPRLPRPRPRPTDVPRP	-0.283
RRIRWRPPRLPRPRPRPTEAPRP	0.214
RRIRWRPPRLPRPRPRPTEVPRP	0.0181
RRIRWRPPRLPRPRPRPTEYPRP	-0.0755
RRIRWRPPRLPRPRPRPTFGPRP	-0.0806
RRIRWRPPRLPRPRPRPTFNPRP	0.00157
RRIRWRPPRLPRPRPRPTGLPRP	0.0239
RRIRWRPPRLPRPRPRPTGMPRP	0.117
RRIRWRPPRLPRPRPRPTHCPRP	0.213
RRIRWRPPRLPRPRPRPTHMPRP	0.206
RRIRWRPPRLPRPRPRPTKSPRP	0.176
RRIRWRPPRLPRPRPRPTKYPRP	-0.124
RRIRWRPPRLPRPRPRPTMHPRP	0.454
RRIRWRPPRLPRPRPRPTMIPRP	-0.0926
RRIRWRPPRLPRPRPRPTNVPRP	-0.0165
RRIRWRPPRLPRPRPRPTPLPRP	0.557
RRIRWRPPRLPRPRPRPTQCPRP	0.115
RRIRWRPPRLPRPRPRPTQMPRP	0.59
RRIRWRPPRLPRPRPRPTRSPRP	0.723
RRIRWRPPRLPRPRPRPTTMPRP	-0.0212
RRIRWRPPRLPRPRPRPTVQPRP	0.116
RRIRWRPPRLPRPRPRPTVSPRP	-0.156
RRIRWRPPRLPRPRPRPTVWPRP	0.533
RRIRWRPPRLPRPRPRPTYPPRP	-0.553
